Results: US20190374506A1 (BETH ISREAL DEACONESS MEDICAL CENTER, published 2019)

Assays:
Flag-WWP1 = target: T1, Flag-WWP1 (Homo sapiens (Human), UniProt Q9H0M0 1-922); assay: reciprocal co-immunoprecipitation from 293 cells: IP HA / WB Flag and IP Flag / WB HA
T1 construct: also called full-length Flag-WWP1; recombinant Flag-WWP1; not shown: Flag tag

[1] = target: the molecule itself; assay: gel filtration of HEK293 lysate, fractions on SDS-PAGE, anti-Myc blot
Description: 293 cells were transfected with the indicated expression vectors. After 24 hours, cells were washed with PBS, lysed and filtered through a 0.45 μm syringe filter. 500 μl of lysate (4 mg/ml) was loaded into a Superdex200 10/300 GL column (GE Lifesciences Cat. No. 17-5175-01). Tandem columns gel filtrations were performed by further attaching a series Superdex 75 10/300 GL column (GE Lifesciences Cat. No. 17-5174-01). Samples were separated in a Superdex75 column first, followed by a Superdex 200 column. Chromatography was performed by using anAKTA FPLC (GE Lifesciences Cat. No. 18-1900-26), and protein complexes were resolved and eluted with lysis buffer at 0.5 ml/minute, 500 μl per fraction. 40 μl aliquots of each fraction were separated by SDS-PAGE and western blot analysis was performed with the indicated antibodies. Before sample separation, molecular-weight resolution of the columns was estimated by running the Gel Filtration Calibration Kit (GE Lifesciences, #28-4038-42) to determine retention times on Coomassie-stained SDS-PAGE protein gels.

HA-PTEN = target: T2, HA-PTEN (human, UniProt P60484 1-403); assay: anti-PTEN immunoprecipitation from DU145 cells transfected with HA-PTEN, SDS-PAGE, mass-spectrometric peptide sequencing of the bands (association in the precipitate)
T2 construct: Expressed in DU145 cells and immunoprecipitated with anti-PTEN antibody for mass spectrometry; also called exogenous PTEN; pcDNA3-HA-PTEN; not shown: HA tag
Text: FIG. 2A is a Western blot. Lysates from DU145 cells transfected with HA-PTEN were immunoprecipitated with an anti-PTEN antibody followed by mass-spectrometric peptide sequencing. WWP1 and NEDD4-1 were identified.
In order to identify the E3 ligases that induce PTEN atypical K27-linked poly-ubiquitination, exogenous PTEN was immunoprecipitated from DU145 cells, followed by identification of the proteins that interacted with PTEN by mass spectrometry (FIG. 2A; FIG. 18).

B1: N-terminal PTEN (1-187) (enzyme, not shown: small tags and cut ends)
chain: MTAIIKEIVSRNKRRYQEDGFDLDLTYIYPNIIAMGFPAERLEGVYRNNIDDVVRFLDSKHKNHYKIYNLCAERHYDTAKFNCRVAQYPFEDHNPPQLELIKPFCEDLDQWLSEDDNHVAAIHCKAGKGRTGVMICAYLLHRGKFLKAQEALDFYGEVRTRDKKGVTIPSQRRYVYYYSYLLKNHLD
B1: no binding (Flag-WWP1).

B2: PTEN K342/K344R mutant (enzyme, not shown: small tags and cut ends)
chain: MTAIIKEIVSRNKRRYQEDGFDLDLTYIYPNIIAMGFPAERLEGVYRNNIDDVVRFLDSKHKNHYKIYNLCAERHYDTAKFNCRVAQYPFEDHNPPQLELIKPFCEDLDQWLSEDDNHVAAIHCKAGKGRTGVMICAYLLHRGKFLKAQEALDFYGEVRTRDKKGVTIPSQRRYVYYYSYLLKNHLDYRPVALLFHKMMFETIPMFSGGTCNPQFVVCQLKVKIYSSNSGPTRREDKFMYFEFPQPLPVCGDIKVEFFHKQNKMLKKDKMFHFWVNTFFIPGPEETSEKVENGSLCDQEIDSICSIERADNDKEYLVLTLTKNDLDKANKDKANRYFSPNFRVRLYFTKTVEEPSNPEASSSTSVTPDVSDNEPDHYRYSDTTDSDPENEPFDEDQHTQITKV
notes: also called Myc-PTEN K342/K344R mutant; PTEN K342/K344R ubiquitination defective mutant
B2: binds [1].

B3: Cytoskeleton-associated protein 4 (other)
chain: MPSAKQRGSKGGHGAASPSEKGAHPSGGADDVAKKPPPAPQQPPPPPAPHPQQHPQQHPQNQAHGKGGHRGGGGGGGKSSSSSSASAAAAAAAASSSASCSRRLGRALNFLFYLALVAAAAFSGWCVHHVLEEVQQVRRSHQDFSRQREELGQGLQGVEQKVQSLQATFGTFESILRSSQHKQDLTEKAVKQGESEVSRISEVLQKLQNEILKDLSDGIHVVKDARERDFTSLENTVEERLTELTKSINDNIAIFTEVQKRSQKEINDMKAKVASLEESEGNKQDLKALKEAVKEIQTSAKSREWDMEALRSTLQTMESDIYTEVRELVSLKQEQQAFKEAADTERLALQALTEKLLRSEESVSRLPEEIRRLEEELRQLKSDSHGPKEDGGFRHSEAFEALQQKSQGLDSRLQHVEDGVLSMQVASARQTESLESLLSKSQEHEQRLAALQGRLEGLGSSEADQDGLASTVRSLGETQLVLYGDVEELKRSVGELPSTVESLQKVQEQVHTLLSQDQAQAARLPPQDFLDRLSSLDNLKASVSQVEADLKMLRTAVDSLVAYSVKIETNENNLESAKGLLDDLRNDLDRLFVKVEKIHEKV
B3: binds (HA-PTEN).

B4: Isoform 2 of Structural maintenance of chromosomes protein 2 (other)
chain: MHIKSIILEGFKSYAQRTEVNGFDPLFNAITGLNGSGKSNILDSICFLLGISNLSQVRASNLQDLVYKNGQAGITKASVSITFDNSDKKQSPLGFEVHDEITVTRQVVIGGRNKYLINGVNANNTRVQDLFCSVGLNVNNPHFLIMQGRITKVLNMKPPEILSMIEEAAGTRMYEYKKIAAQKTIEKKEAKLKEIKTILEEEITPTIQKLKEERSSYLEYQKVMREIEHLSRLYIAYQFLLAEDTKVRSAEELKEMQDKVIKLQEELSENDKKIKALNHEIEELEKRKDKETGGILRSLEDALAEAQRVNTKSQSAFDLKKKNLACEESKRKELEKNMVEDSKTLAAKEKEVKKITDGLHALQEASNKDAEALAAAQQHFNAVSAGLSSNEDGAEATLAGQMMACKNDISKAQTEAKQAQMKLKHAQQELKNKQAEVKKMDSGYRKDQEALEAVKRLKEKLEAEMKKLNYEENKEESLLEKRRQLSRDIGRLKETYEALLARFPNLRFAYKDPEKNWNRNCVKGLVASLISVKDTSATTALELVAGERLYNVVVDTEVTGKKLLERGELKRRYTIIPLNKISARCIAPETLRVAQNLVGPDNVHVALSLVEYKPELQKAMEFVFGTTFVCDNMDNAKKVAFDKRIMTRTVTLGGDVFDPHGTLSGGARSQAASILTKFQELKDVQDELRIKENELRALEEELAGLKNTAEKYRQLKQQWEMKTEEADLLQTKLQQSSYHKQQEELDALKKTIEESEETLKNTKEIQRKAEEKYEVLENKMKNAEAERERELKDAQKKLDCAKTKADASSKKMKEKQQEVEAITLELEELKREHTSYKQQLEAVNEAIKSYESQIEVMAAEVAKNKESVNKAQEEVTKQKEVITAQDTVIKAKYAEVAKHKEQNNDSQLKIKELDHNISKHKREAEDGAAKVSKMLKDYDWINAERHLFGQPNSAYDFKTNNPKEAGQRLQKLQEMKEKLGRNVNMRAMNVLTEAEERYNDLMKKKRIVENDKSKILTTIEDLDQKKNQALNIAWQKVNKDFGSIFSTLLPGANAMLAPPEGQTVLDGLEFKVALGNTWKENLTELSGGQRQKQQNHTTG
B4: binds (HA-PTEN).

B5: Monofunctional C1-tetrahydrofolate synthase (enzyme)
chain: SSGGGGGGGGGREGLLGQRRPQDGQARSSCSPGGRTPAARDSIVREVIQNSKEVLSLLQEKNPAFKPVLAIIQAGDDNLMQEINQNLAEEAGLNITHICLPPDSSEAEIIDEILKINEDTRVHGLALQISENLFSNKVLNALKPEKDVDGVTDINLGKLVRGDAHECFVSPVAKAVIELLEKSGVNLDGKKILVVGAHGSLEAALQCLFQRKGSMTMSIQWKTRQLQSKLHEADIVVLGSPKPEEIPLTWIQPGTTVLNCSHDFLSGKVGCGSPRIHFGGLIEEDDVILLAAALRIQNMVSSGRRWLREQQHRRWRLHCLKLQPLSPVPSDIEISRGQTPKAVDVLAKEIGLLADEIEIYGKSKAKVRLSVLERLKDQADGKYVLVAGITPTPLGEGKSTVTIGLVQALTAHLNVNSFACLRQPSQGPTFGVKGGAAGGGYAQVIPMEEFNLHLTGDIHAITAANNLLAAAIDTRILHENTQTDKALYNRLVPLVNGVREFSEIQLARLKKLGINKTDPSTLTEEEVSKFARLDIDPSTITWQRVLDTNDRFLRKITIGQGNTEKGHYRQAQFDIAVASEIMAVLALTDSLADMKARLGRMVVASDKSGQPVTADDLGVTGALTVLMKDAIKPNLMQTLEGTPVFVHAGPFANIAHGNSSVLADKIALKLVGEEGFVVTEAGFGADIGMEKFFNIKCRASGLVPNVVVLVATVRALKMHGGGPSVTAGVPLKKEYTEENIQLVADGCCNLQKQIQITQLFGVPVVVALNVFKTDTRAEIDLVCELAKRAGAFDAVPCYHWSVGGKGSVDLARAVREAASKRSRFQFLYDVQVPIVDKIRTIAQAVYGAKDIELSPEAQAKIDRYTQQGFGNLPICMAKTHLSLSHQPDKKGVPRDFILPISDVRASIGAGFIYPLVGTMSTMPGLPTRPCFYDIDLDTETEQVKGLF
B5: binds (HA-PTEN).

B6: Isoform 2 of Putative RNA-binding protein 15 (other)
chain: MRTAGRDPVPRRSPRWRRAVPLCETSAGRRVTQLRGDDLRRPATMKGKERSPVKAKRSRGGEDSTSRGERSKKLGGSGGSNGSSSGKTDSGGGSRRSLHLDKSSSRGGSREYDTGGGSSSSRLHSYSSPSTKNSSGGGESRSSSRGGGGESRSSGAASSAPGGGDGAEYKTLKISELGSQLSDEAVEDGLFHEFKRFGDVSVKISHLSGSGSGDERVAFVNFRRPEDARAAKHARGRLVLYDRPLKIEAVYVSRRRSRSPLDKDTYPPSASVVGASVGGHRHPPGGGGGQRSLSPGGAALGYRDYRLQQLALGRLPPPPPPPLPRDLERERDYPFYERVRPAYSLEPRVGAGAGAAPFREVDEISPEDDQRANRTLFLGNLDITVTESDLRRAFDRFGVITEVDIKRPSRGQTSTYGFLKFENLDMSHRAKLAMSGKIIIRNPIKIGYGKATPTTRLWVGGLGPWVPLAALAREFDRFGTIRTIDYRKGDSWAYIQYESLDAAHAAWTHMRGFPLGGPDRRLRVDFADTEHRYQQQYLQPLPLTHYELVTDAFGHRAPDPLRGARDRTPPLLYRDRDRDLYPDSDWVPPPPPVRERSTRTAATSVPAYEPLDSLDRRRDGWSLDRDRGDRDLPSSRDQPRKRRLPEESGGRHLDRSPESDRPRKRHCAPSPDRSPELSSSRDRYNSDNDRSSRLLLERPSPIRDRRGSLEKSQGDKRDRKNSASAERDRKHRTTAPTEGKSPLKKEDRSDGSAPSTSTASSKLKSPSQKQDGGTAPVASASPKLCLAWQGMLLLKNSNFPSNMHLLQGDLQVASSLLVEGSTGGKVAQLKITQRLRLDQPKLDEVTRRIKVAGPNGYAILLAVPGSSDSRSSSSSAASDTATSTQRPLRNLVSYLKQKQAAGVISLPVGGNKDKENTGVLHAFPPCEFSQQFLDSPAKALAKSEEDYLVMIIVRGAS
B6: binds (HA-PTEN).
